According to US20160361443A1, “Ultrasound Molecular Imaging With Targeted Biocompatible Microbubbles” (University of Pittsburgh - Of the Commonwealth System of …, priority 2015, published 2016):
Values belong to the substance of their own block, whether it stands above or below them. Where no end group is shown, it is not given here.

Experiments:
human E-selectin [1] = biological target: T1, human E-selectin (Homo sapiens, UniProt P16581); details: cited from earlier work
T1 sequence (P16581 22-610): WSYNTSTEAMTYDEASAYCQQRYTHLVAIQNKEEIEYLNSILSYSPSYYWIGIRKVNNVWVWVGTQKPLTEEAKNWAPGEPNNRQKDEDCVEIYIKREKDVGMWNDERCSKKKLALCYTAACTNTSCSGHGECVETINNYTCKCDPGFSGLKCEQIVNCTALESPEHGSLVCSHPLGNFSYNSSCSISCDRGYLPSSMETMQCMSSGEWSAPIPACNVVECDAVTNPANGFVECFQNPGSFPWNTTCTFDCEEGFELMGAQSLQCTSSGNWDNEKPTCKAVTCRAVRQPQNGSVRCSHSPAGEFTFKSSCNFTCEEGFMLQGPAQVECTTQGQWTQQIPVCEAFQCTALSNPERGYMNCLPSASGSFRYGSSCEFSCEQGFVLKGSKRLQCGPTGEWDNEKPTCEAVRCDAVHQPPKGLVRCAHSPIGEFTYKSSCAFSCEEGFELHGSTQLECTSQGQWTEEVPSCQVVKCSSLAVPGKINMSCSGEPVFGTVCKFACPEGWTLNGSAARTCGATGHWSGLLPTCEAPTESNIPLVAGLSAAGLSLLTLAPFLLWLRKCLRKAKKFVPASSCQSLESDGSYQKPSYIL

human E-selectin [2] = biological target: T1, human E-selectin; details: static and flow-cell assays; cited from earlier work
[3] = biological target: rat E-selectin on inflamed (IL-1β-activated) rat heart microvascular endothelial cells / inflamed or post-ischemic rat endothelium (rat) (UniProt P98105); test: parallel plate flow system, normal cultured rat ECs; control microbubble
[4] = biological target: rat E-selectin on inflamed (IL-1β-activated) rat heart microvascular endothelial cells / inflamed or post-ischemic rat endothelium (rat) (UniProt P98105); test: parallel plate flow system, activated cultured rat ECs; control microbubble
[5] = biological target: rat E-selectin on inflamed (IL-1β-activated) rat heart microvascular endothelial cells / inflamed or post-ischemic rat endothelium (rat) (UniProt P98105); test: parallel plate perfusion chamber, inflamed rat heart microvascular ECs; control microbubble
[6] = biological target: rat E-selectin on inflamed (IL-1β-activated) rat heart microvascular endothelial cells / inflamed or post-ischemic rat endothelium (rat) (UniProt P98105); test: cell-based or functional assay
E-selectin [7] = test: TNF-α induced E-selectin upregulation in HUVEC cells (immunostaining, electrophoresis gel); format: cell-based, human; details: TNFα 20 ng/mL for 4 hr vs without TNFα
Description: FIG. 24 presents exempary data of TNF-α induced E-selectin upregulation by immunostaining of HUVEC cells.

ICAM = test: RT-qPCR of heart after LPS injection, ICAM mRNA; format: in vivo, rat; details: 4 hours post LPS injection
Experimental: (§1) Wistar Rats were intraperitoneally injected with lipopolysaccharide (LPS) in normal saline (dose: 1 mg/kg) to induce systemic inflammation. Four hours post-injection, rats were anesthetized and intubated.
(§2) LPS treated and untreated (i.e., baseline) hearts were harvested. RNA extraction and reverse transcriptase real-time quantitative polymerase chain reaction (RT-qPCR) for E-selectin, ICAM and glyceraldehyde 3-phosphate dehydrogenase (GAPDH, a house keeping gene) in the heart were performed. E-selectin and ICAM mRNA expression level were expressed as percent of GAPDH.

E-selectin [8] = test: RT-qPCR of heart after LPS injection, E-selectin mRNA; format: in vivo, rat; details: 4 hours post LPS injection
Experimental: as §1, §2

E-selectin [9] = biological target: T2, E-selectin (Rattus norvegicus, UniProt P98105); test: Ultrasound molecular imaging with targeted MB (Mal) in LPS rat inflammation model; format: in vivo; details: 2×10^7 MB
T2 construct: Immunofluorescent staining in all rats consistently confirmed microvascular E-selectin and ICAM-1 expression in postischemic myocardium; from tissue
T2 sequence (P98105 22-549): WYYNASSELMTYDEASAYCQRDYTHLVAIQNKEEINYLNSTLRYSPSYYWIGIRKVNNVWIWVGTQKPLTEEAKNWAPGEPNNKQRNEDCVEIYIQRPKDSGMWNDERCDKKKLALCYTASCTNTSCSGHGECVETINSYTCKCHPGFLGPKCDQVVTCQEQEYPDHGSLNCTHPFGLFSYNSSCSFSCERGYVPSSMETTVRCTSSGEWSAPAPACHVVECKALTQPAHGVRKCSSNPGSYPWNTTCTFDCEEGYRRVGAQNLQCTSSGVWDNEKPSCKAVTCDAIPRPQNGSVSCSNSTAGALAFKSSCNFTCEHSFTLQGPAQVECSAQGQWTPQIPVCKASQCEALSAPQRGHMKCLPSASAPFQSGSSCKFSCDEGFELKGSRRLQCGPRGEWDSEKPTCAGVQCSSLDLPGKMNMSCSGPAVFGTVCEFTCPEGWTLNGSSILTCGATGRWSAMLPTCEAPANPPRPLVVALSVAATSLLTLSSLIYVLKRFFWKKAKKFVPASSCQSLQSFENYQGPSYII
Experimental: FIG. 26 presents exemplary data comparing myocardial retention of microbubble populations (2×10^7) either with, or without, a targeting ligand in an LPS rat inflammation model. The data were linearized and a two-phase washout model was fitted to obtain the retained MB concentration in the myocardium.
as §1
Each rat received intravenous injection of targeted MB Esel(MAL) and control MB IgG in random order (2×10^7 MB in 200 μL saline followed by a 200 μL saline flush). Baseline contrast ultrasound images were obtained before each microbubble injection and intermittent contrast ultrasound imaging were performed for 20 min to monitor the adhesion dynamics of MB in the myocardium. Acuson Sequoia 512 clinical ultrasound system (Siemens, Mountain View, Calif.) with a 15 L8 linear array transducer was used for imaging in CPS mode at 7 MHz.
Microbubble (MB) signals in the anterior myocardium and in the left ventricular cavity were also analyzed. […] Signal intensity was linearized and a two-phase washout model
was used to calculate the amount of MB retention in the myocardium.

Substance: H2NDITWDQLWDLMK-COOH (H-DITWDQLWDLMK-OH) [AF10166]
Kd value (human E-selectin [1]; believed, from phage display library screening): low nanomolar range
IC50 (human E-selectin [1]): 4.4 nM
Neutrophil adhesion (human E-selectin [2]): blocks neutrophil adhesion

adherent microbubbles per endothelial cell (MB/EC) [3]: 2 MB/EC
adherent microbubbles per endothelial cell (MB/EC) [4]: 2 MB/EC
adherent microbubbles per endothelial cell (MB/EC) [5]: 2.3 MB/EC
adherent microbubbles per field, intravital microscopy of TNF-α-inflamed rat cremaster microcirculation (control microbubble) [6]: 1.1 MBs/field
background-subtracted videointensity, postischemic LAD bed (control microbubble) [6]: 1.7 dB
myocardial videointensity, post-ischemic bed (control microbubble) [6]: 2 dB
Substance: MBIgG: polymer/albumin double-shell microbubble bearing rat biotinylated immunoglobulin G (non-specific IgG, BD Biosciences) via biotin-streptavidin bridging (antibody)

Substance: TNFα
E-selectin expression (in words) (E-selectin [7]): significant upregulation

Substance: lipopolysaccharide [LPS]
ICAM mRNA expression (ICAM): 6.09±3.14 % of GAPDH
Esel mRNA expression (E-selectin [8]): 2.28±1.32 % of GAPDH

Myocardial MB concentration, more as compared with control IgG MB injection (E-selectin [9]; 6 minutes post-injection, 4 h post LPS 1 mg/kg): 185%
Retained MB in the myocardium (Ar term) as compared with control MB injection (E-selectin [9]; two-phase washout model fit, 4 h post LPS): 330%
Substance: targeted MB: Polymer microbubble conjugated to E-selectin targeting peptide by thioether bond (maleimide-thiol chemistry) (CDITWDQLWDLMK; not fully specified (residue 1); also: N-terminal Cys thioether to maleimide linker BM(PEG)3 on microbubble shell)
